Measurements taken from patent US7235238 (IMMUNEX, dated 2007).

Tests used:
[1] = biological target: chimeric receptor: extracellular and transmembrane portions of the mouse type I IL-1 receptor fused to the cytoplasmic portion of human 2F1 (mouse; human) (UniProt P13504); experiment: cell-based or functional assay; settings: scale: fold of the level mediated by the intact mouse type I IL-1R
[2] = biological target: T1, soluble type I IL-1RI/Fc fusion protein (extracellular domain of human type I IL-1R fused to the Fc region … (human, UniProt P14778 18-336)); experiment: BIAcore; Fc fusion captured by anti-human IgG Fc serum
T1 construct: extracellular domain; Positive control in the BIAcore assay; also called human type I IL-1R/Fc fusion protein; not shown: Fc region polypeptide (human IgG1, as for 2F1/Fc)
T1 sequence (looked up): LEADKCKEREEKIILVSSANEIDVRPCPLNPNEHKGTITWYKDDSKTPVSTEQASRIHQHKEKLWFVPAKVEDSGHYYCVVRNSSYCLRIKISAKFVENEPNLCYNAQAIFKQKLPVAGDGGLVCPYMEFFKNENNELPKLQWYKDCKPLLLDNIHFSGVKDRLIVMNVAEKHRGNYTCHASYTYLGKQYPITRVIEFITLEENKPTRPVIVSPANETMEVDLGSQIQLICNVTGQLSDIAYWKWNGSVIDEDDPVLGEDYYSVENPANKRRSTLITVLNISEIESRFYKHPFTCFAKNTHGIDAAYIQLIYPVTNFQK
Excerpt: (§1) A BIAcore biosensor (Pharmacia Biosensor AB, Piscataway, N.J.) was used to examine binding of IL-1 ligands to the human 2F1/Fc fusion protein, using procedures essentially as described in Arend et al. (*J. Immunol.* 153: 4766–4774, 1994). Briefly, a goat anti-human IgG serum directed against the Fc region (Jackson Immunoresearch Laboratories, Inc., West Grove, Pa.), covalently coupled to the dextran matrix of a hydrogel chip, was used to capture the human 2F1/Fc protein. The 2F1/Fc fusion protein thus was immobilized on the BIAcore chip. The three IL-1 ligands, at several different concentrations, were reacted with the captured protein, and the change of mass per unit area over time was measured.

[3] = biological target: T2, 2F1/Fc soluble fusion protein (human 2F1 extracellular domain joined to the Fc region of a human IgG1) (human, UniProt Q13478 20-329); experiment: BIAcore; 2F1/Fc captured by anti-human IgG Fc serum, ligand at several different concentrations
T2 construct: Captured on the BIAcore chip by goat anti-human IgG Fc serum; also called human 2F1/Fc fusion protein; 2F1/Fc protein; not shown: Fc region of a human IgG1; made by procedures analogous to Baum et al. 1994
T2 sequence: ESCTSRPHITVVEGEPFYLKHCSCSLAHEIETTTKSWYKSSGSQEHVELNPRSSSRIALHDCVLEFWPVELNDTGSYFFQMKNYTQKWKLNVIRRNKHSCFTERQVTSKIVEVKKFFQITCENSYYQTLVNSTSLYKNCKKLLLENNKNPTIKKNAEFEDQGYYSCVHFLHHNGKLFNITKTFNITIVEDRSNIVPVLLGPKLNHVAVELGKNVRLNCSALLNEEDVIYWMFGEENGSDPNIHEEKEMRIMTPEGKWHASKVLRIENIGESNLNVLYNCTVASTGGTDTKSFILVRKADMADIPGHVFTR
Excerpt: as §1

Sequence of chimeric receptor: extracellular and transmembrane portions of the mouse type I IL-1 receptor fused to the cytoplasmic portion of human 2F1 (mouse; human) (P13504 other isoform, or with tags, fused parts or gaps mutant, form in doubt): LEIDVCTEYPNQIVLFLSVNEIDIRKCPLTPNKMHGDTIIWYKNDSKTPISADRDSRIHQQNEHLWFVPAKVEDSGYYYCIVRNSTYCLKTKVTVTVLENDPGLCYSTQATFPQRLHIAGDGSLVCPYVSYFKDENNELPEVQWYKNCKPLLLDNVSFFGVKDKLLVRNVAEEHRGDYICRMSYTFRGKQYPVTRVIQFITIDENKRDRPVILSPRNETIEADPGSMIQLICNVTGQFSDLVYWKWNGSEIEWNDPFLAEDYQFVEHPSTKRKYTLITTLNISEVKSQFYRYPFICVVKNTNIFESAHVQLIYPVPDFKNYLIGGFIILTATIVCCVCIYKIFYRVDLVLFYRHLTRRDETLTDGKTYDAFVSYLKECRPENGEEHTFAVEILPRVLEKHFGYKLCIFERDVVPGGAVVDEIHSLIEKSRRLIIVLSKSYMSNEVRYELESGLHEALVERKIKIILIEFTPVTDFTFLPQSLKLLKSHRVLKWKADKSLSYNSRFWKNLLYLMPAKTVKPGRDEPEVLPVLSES

induction of IL-8 promoter function (IL-2Rα reporter, COS7 cells) [1]: 0.5
binding result [2]: binds
binding result [3]: no binding
B1: human IL-1α (ligand, UniProt P01583 113-271, looked up)
chain: SAPFSFLSNVKYNFMRIIKYEFILNDALNQSIIRANDQYLTAAALHNLDEAVKFDMGAYKSSKDDAKITVILRISKTQLYVTAQDEDQPVLLKEMPEIPKTITGSETNLLFFWETHGTKNYFTSVAHPNLFIATKQDYWVCLAGGPPSITDFQILENQA
